According to the supplement of paper PMC6757056:
± gives the standard deviation of the averaged measurements.

B1: library; a variant is named by its letters at N, in order (parent)
chain: GCUGUCACCGGUGUAUUACCCUAGUGGUCGACCGGUCUGAUGAGUCUNNNNNNAGACGAAACAGC

Key:
hypoxanthine [1] = variants of: B1; test: normalized RNA/DNA level with ligand (relative to sTRSVctl = 100) (log10 (% of sTRSVctl)); ligand: hypoxanthine (xanthine aptamer); higher = less ribozyme self-cleavage, higher mRNA level; conditions: ligand concentration (+) RNA-Seq: 5 mM, HEK293T, reporter: mCherry (pCS4076), ligand present: yes
Outline: (§1)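 Library plasmids encoding reporter-linked ribozyme switches (mCherry, or eGFP for some folinic acid experiments) were transfected into HEK293T at 4 µg per 6-well well. Ligand, when used, was added 1 h before transfection. Total RNA was extracted with EDTA 72 h later, then reverse-transcribed, amplified, barcoded and sequenced. RNA level was RNA reads over DNA reads, divided by a spiked-in non-cleaving control (or the top 25 sequences), ×100, log10; only sequences with ≥100 DNA reads were kept.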

hypoxanthine [2] = variants of: B1; test: normalized RNA/DNA level without ligand (relative to sTRSVctl = 100) (log10 (% of sTRSVctl)); ligand: hypoxanthine (xanthine aptamer); higher = less ribozyme self-cleavage, higher mRNA level; conditions: HEK293T, reporter: mCherry (pCS4076), ligand present: no
Outline: as §1

| Variant | normalized RNA/DNA level with ligand (log10) (hypoxanthine [1]) | normalized RNA/DNA level without ligand (log10) (hypoxanthine [2]) |
| --- | --- | --- |
| GCUGUCACCGGUGUAUUACCCUAGUGGUCGACCGGUCUGAUGAGUCUCGGAGAAGACGAAACAGC [CGGAGA] | 1.93 ± 0.044 | 1.617 ± 0.012 |
| GCUGUCACCGGUGUAUUACCCUAGUGGUCGACCGGUCUGAUGAGUCUCGGAGCAGACGAAACAGC [CGGAGC] | 1.944 ± 0.019 | 1.67 ± 0.046 |
| GCUGUCACCGGUGUAUUACCCUAGUGGUCGACCGGUCUGAUGAGUCUUGGCGCAGACGAAACAGC [UGGCGC] | 2 ± 0.04 | 2 ± 0.027 |
| GCUGUCACCGGUGUAUUACCCUAGUGGUCGACCGGUCUGAUGAGUCUUGGCGGAGACGAAACAGC [UGGCGG] | 1.97 ± 0.14 | 1.69 ± 0.024 |
| GCUGUCACCGGUGUAUUACCCUAGUGGUCGACCGGUCUGAUGAGUCUCGGCGUAGACGAAACAGC [CGGCGU] | 1.929 ± 0.017 | 1.91 ± 0.06 |
| GCUGUCACCGGUGUAUUACCCUAGUGGUCGACCGGUCUGAUGAGUCUCGGCGAAGACGAAACAGC [CGGCGA] | 1.95 ± 0.029 | 1.743 ± 0.017 |
| GCUGUCACCGGUGUAUUACCCUAGUGGUCGACCGGUCUGAUGAGUCUCGGCGGAGACGAAACAGC [CGGCGG] | 1.889 ± 0.0076 | 1.48 ± 0.11 |
| GCUGUCACCGGUGUAUUACCCUAGUGGUCGACCGGUCUGAUGAGUCUCGGCGCAGACGAAACAGC [CGGCGC] | 2.005 ± 0.013 | 1.93 ± 0.064 |
| GCUGUCACCGGUGUAUUACCCUAGUGGUCGACCGGUCUGAUGAGUCUAGGCACAGACGAAACAGC [AGGCAC] | 1.94 ± 0.021 | 1.83 ± 0.042 |
| GCUGUCACCGGUGUAUUACCCUAGUGGUCGACCGGUCUGAUGAGUCUAGGCAAAGACGAAACAGC [AGGCAA] | 1.886 ± 0.0036 | 1.74 ± 0.036 |
| GCUGUCACCGGUGUAUUACCCUAGUGGUCGACCGGUCUGAUGAGUCUGGGCACAGACGAAACAGC [GGGCAC] | 1.9407 ± 0.0014 | 1.879 ± 0.012 |
| GCUGUCACCGGUGUAUUACCCUAGUGGUCGACCGGUCUGAUGAGUCUGGGACUAGACGAAACAGC [GGGACU] | 1.872 ± 0.0089 | 1.91 ± 0.024 |
| GCUGUCACCGGUGUAUUACCCUAGUGGUCGACCGGUCUGAUGAGUCUGGGCCCAGACGAAACAGC [GGGCCC] | 1.95 ± 0.02 | 1.98 ± 0.029 |
| GCUGUCACCGGUGUAUUACCCUAGUGGUCGACCGGUCUGAUGAGUCUGGGCCUAGACGAAACAGC [GGGCCU] | 2.06 ± 0.045 | 2.014 ± 0.0022 |
| GCUGUCACCGGUGUAUUACCCUAGUGGUCGACCGGUCUGAUGAGUCUUGGACUAGACGAAACAGC [UGGACU] | 1.93 ± 0.033 | 1.9 ± 0.032 |
| GCUGUCACCGGUGUAUUACCCUAGUGGUCGACCGGUCUGAUGAGUCUUGGCCUAGACGAAACAGC [UGGCCU] | 1.98 ± 0.043 | 2.008 ± 0.0053 |
| GCUGUCACCGGUGUAUUACCCUAGUGGUCGACCGGUCUGAUGAGUCUUGGCCCAGACGAAACAGC [UGGCCC] | 2.02 ± 0.022 | 1.99 ± 0.044 |
| GCUGUCACCGGUGUAUUACCCUAGUGGUCGACCGGUCUGAUGAGUCUUGGCCGAGACGAAACAGC [UGGCCG] | 2.015 ± 0.00026 | 1.956 ± 0.006 |
| GCUGUCACCGGUGUAUUACCCUAGUGGUCGACCGGUCUGAUGAGUCUUGGCCAAGACGAAACAGC [UGGCCA] | 1.97 ± 0.033 | 1.92 ± 0.046 |
| GCUGUCACCGGUGUAUUACCCUAGUGGUCGACCGGUCUGAUGAGUCUGGGAUUAGACGAAACAGC [GGGAUU] | 1.9914 ± 0.00078 | 1.817 ± 0.014 |
| GCUGUCACCGGUGUAUUACCCUAGUGGUCGACCGGUCUGAUGAGUCUGGGAUCAGACGAAACAGC [GGGAUC] | 1.94 ± 0.075 | 1.861 ± 0.018 |

| Variant | normalized RNA/DNA level with ligand (log10) (hypoxanthine [1]) | normalized RNA/DNA level without ligand (log10) (hypoxanthine [2]) |
| --- | --- | --- |
| GCUGUCACCGGUGUAUUACCCUAGUGGUCGACCGGUCUGAUGAGUCUGGGAUAAGACGAAACAGC [GGGAUA] | 1.95 ± 0.053 | 1.69 ± 0.0074 |
| GCUGUCACCGGUGUAUUACCCUAGUGGUCGACCGGUCUGAUGAGUCUCGGCAAAGACGAAACAGC [CGGCAA] | 1.88 ± 0.024 | 1.529 ± 0.011 |
| GCUGUCACCGGUGUAUUACCCUAGUGGUCGACCGGUCUGAUGAGUCUCGGCACAGACGAAACAGC [CGGCAC] | 1.923 ± 0.016 | 1.733 ± 0.0076 |
| GCUGUCACCGGUGUAUUACCCUAGUGGUCGACCGGUCUGAUGAGUCUGGGCGCAGACGAAACAGC [GGGCGC] | 1.929 ± 0.013 | 1.7 ± 0.032 |
| GCUGUCACCGGUGUAUUACCCUAGUGGUCGACCGGUCUGAUGAGUCUGGGCGAAGACGAAACAGC [GGGCGA] | 1.99 ± 0.057 | 1.88 ± 0.038 |
| GCUGUCACCGGUGUAUUACCCUAGUGGUCGACCGGUCUGAUGAGUCUAGGAUUAGACGAAACAGC [AGGAUU] | 1.934 ± 0.0076 | 1.83 ± 0.075 |
| GCUGUCACCGGUGUAUUACCCUAGUGGUCGACCGGUCUGAUGAGUCUAGGAUCAGACGAAACAGC [AGGAUC] | 1.99 ± 0.046 | 1.944 ± 0.013 |
| GCUGUCACCGGUGUAUUACCCUAGUGGUCGACCGGUCUGAUGAGUCUAGGCCCAGACGAAACAGC [AGGCCC] | 1.99 ± 0.038 | 1.95 ± 0.044 |
| GCUGUCACCGGUGUAUUACCCUAGUGGUCGACCGGUCUGAUGAGUCUAGGCGAAGACGAAACAGC [AGGCGA] | 1.92 ± 0.066 | 1.557 ± 0.0027 |
| GCUGUCACCGGUGUAUUACCCUAGUGGUCGACCGGUCUGAUGAGUCUAGGCGCAGACGAAACAGC [AGGCGC] | 1.962 ± 0.0082 | 1.87 ± 0.031 |
| GCUGUCACCGGUGUAUUACCCUAGUGGUCGACCGGUCUGAUGAGUCUUGGAUUAGACGAAACAGC [UGGAUU] | 1.97 ± 0.021 | 1.824 ± 0.0038 |
| GCUGUCACCGGUGUAUUACCCUAGUGGUCGACCGGUCUGAUGAGUCUUGGAUAAGACGAAACAGC [UGGAUA] | 1.96 ± 0.042 | 1.84 ± 0.02 |
| GCUGUCACCGGUGUAUUACCCUAGUGGUCGACCGGUCUGAUGAGUCUUGGAUCAGACGAAACAGC [UGGAUC] | 1.99 ± 0.04 | 1.95 ± 0.027 |
| GCUGUCACCGGUGUAUUACCCUAGUGGUCGACCGGUCUGAUGAGUCUCGGCCUAGACGAAACAGC [CGGCCU] | 2.03 ± 0.021 | 1.93 ± 0.027 |
| GCUGUCACCGGUGUAUUACCCUAGUGGUCGACCGGUCUGAUGAGUCUCGGCCAAGACGAAACAGC [CGGCCA] | 1.96 ± 0.056 | 1.95 ± 0.027 |
| GCUGUCACCGGUGUAUUACCCUAGUGGUCGACCGGUCUGAUGAGUCUCGGCCCAGACGAAACAGC [CGGCCC] | 1.979 ± 0.011 | 2.012 ± 0.0089 |
| GCUGUCACCGGUGUAUUACCCUAGUGGUCGACCGGUCUGAUGAGUCUCGGAUGAGACGAAACAGC [CGGAUG] | 1.993 ± 0.011 | 1.75 ± 0.028 |
| GCUGUCACCGGUGUAUUACCCUAGUGGUCGACCGGUCUGAUGAGUCUCGGAUAAGACGAAACAGC [CGGAUA] | 1.87 ± 0.041 | 1.51 ± 0.085 |
| GCUGUCACCGGUGUAUUACCCUAGUGGUCGACCGGUCUGAUGAGUCUCGGAUCAGACGAAACAGC [CGGAUC] | 2.018 ± 0.0066 | 1.92 ± 0.028 |
| GCUGUCACCGGUGUAUUACCCUAGUGGUCGACCGGUCUGAUGAGUCUUGGCACAGACGAAACAGC [UGGCAC] | 2 ± 0.034 | 1.913 ± 0.019 |
| GCUGUCACCGGUGUAUUACCCUAGUGGUCGACCGGUCUGAUGAGUCUUGGCAAAGACGAAACAGC [UGGCAA] | 1.917 ± 0.015 | 1.77 ± 0.03 |
